From patent publication US20150078996A1 (Merck Sharp & Dohme, published 2015)

Key:
[1] = target: IGF-IR expressed on baculovirus-infected Sf9 insect cells (UniProt P08069); assay: flow cytometry on Sf9 cells expressing IGF-IR, secondary antibody alone
[2] = target: IR (insulin receptor) expressed on baculovirus-infected Sf9 insect cells (UniProt P06213); assay: flow cytometry on Sf9 cells expressing IR, secondary antibody alone
[3] = target: IGF-IR expressed on baculovirus-infected Sf9 insect cells (UniProt P08069); assay: flow cytometry on Sf9 cells expressing IGF-IR
[4] = target: IR (insulin receptor) expressed on baculovirus-infected Sf9 insect cells (UniProt P06213); assay: flow cytometry on Sf9 cells expressing IR
[5] = target: full length hIGF-1R from membrane extracts of NIH 3T3 cells overexpressing IGF-1R (human) (UniProt P08069); assay: displacement of 125I-IGF-1 from hIGF-1R captured on FlashPlate
[6] = target: recombinant human IGF-1R extracellular domains (R&D Systems) (human) (UniProt P08069); assay: SPR Biacore X, 5 min injection of 8.24 µg/ml over 439 RU of amine-coupled soluble IGF-1R
[7] = target: recombinant human IGF-1R extracellular domains (R&D Systems) (human) (UniProt P08069); assay: SPR Biacore X, 5 min injection of 7.4 µg/ml over 439 RU of amine-coupled soluble IGF-1R
[8] = target: T1, recombinant human insulin receptor (IR) extracellular domains (R&D Systems) (human, UniProt P06213-2 28-944, limits assumed); assay: western blot after SDS-PAGE, 12B1 as probe
T1 construct: extracellular domain; also called IR ECD
Experimental: Proteins were analyzed by SDS-PAGE electrophoresis on Criterion 7% homogeneous polyacrylamide gels (BioRad, Marnes la Coquette, France) under reducing and non-reducing conditions. Equivalent quantities of 4, 20 and 100 ng were loaded for pure recombinant IR and IGF-1R ECD whereas higher protein quantities, from 0.2 to 6 μg, were needed for membrane extracts to detect IGF-1R by western blot. Proteins were transferred onto nitrocellulose membrane. […] Proteins were further detected by chemiluminescence (ECL, Amersham Biosciences, Orsay, France) after incubation with a horseradish peroxidase-conjugated anti-mouse IgG polyclonal antibody (Amersham Biosciences, 1:3,000 dilution) for 1 h at room temperature and extensive washes.

[9] = target: T2, IR (insulin receptor) expressed on baculovirus-infected Sf9 insect cells (UniProt P06213 28-1382, limits assumed); assay: flow cytometry on Sf9 cells expressing IR
T2 construct: whole, on cells; also called IR + cells
From the text: At this stage of the selection process, only hybridomas secreting monoclonal antibodies that recognized both the recombinant and the native receptors were selected, cloned, produced and then purified before being tested by FACScan analysis, according to the method described above, on Sf9 insect cells expressing either IGF-IR or IR in order to eliminate hybridomas recognizing both the two receptors.

[10] = target: T2, IR (insulin receptor) expressed on …; assay: flow cytometry on Sf9 cells expressing IR; remark: listed apart in the source
[11] = target: T3, IGF-IR expressed on baculovirus-infected Sf9 insect cells (UniProt P08069 31-1367, limits assumed); assay: flow cytometry on Sf9 cells expressing IGF-IR
T3 construct: whole, on cells; also called IGF-1R + cells

“secondary anti-species antibody coupled to a fluorochrome (Anti-Mouse FITC)” showed an MFI [1] of 9 and an MFI [2] of 13.

For “commercially available anti-IGF-1R antibody αIR3”, the MFI [3] was 35 and the MFI [4] was 32.

B1: mouse monoclonal antibody 7C10 (anti-IGF-1R) (antibody, from another filing, V domains shown)
VH: DVQLQESGPGLVKPSQSLSLTCSVTGYSITGGYLWNWIRQFPGNKLEWMGYISYDGTNNYKPSLKDRISITRDTSKNQFFLKLNSVTNEDTATYYCARYGRVFFDYWGQGTTLTVSS
VL: DVLMTQIPLSLPVSLGDQASISCRSSQSIVHSNGNTYLQWYLQKPGQSPKLLIYKVSNRLYGVPDRFSGSGSGTDFTLKISSVEAEDLGVYYCFQGSHVPWTFGGGTKLEIK
Work on B1 yielded an IC50 [5] of 200 pM and a response (RU) [6] of 180 RU.

B2: mouse monoclonal antibody 12B1 (anti-IGF-1R) (antibody, mouse IgG1, V domains shown)
VH: QVQLKESGPDLVAPSQSLSITCTVSGFSLTNYGVHWVRQFPGKGLEWLGVIWAGGNTNYNSALMSRLTISKDNSKSQVFLKMNSLQTDDTAVYYCAREYGSTYVAWFAHWGQGTLVTVSS
VL: ENVLTQSPAIMSASPGEKVTMTCGASSSVSSSFLHWYQQKSGASPKLWIYSTSNLASGVPTRFSGSGSGTSYSLTISSVEAEDAATYYCQQYSGYPLTFGAGTKLELK
notes: also called MAb 12B1; clone 12B1
B2 was tested, and the response (RU) [7] was 146 RU, the binding result [8] was “no binding (tested: 100 ng per lane)” and the binding result [9] was “no binding”. The MFI [10] was 10.5 and the MFI [11] was 54.

B3: monoclonal antibody 2D10 (antibody, V domains shown)
VH: EVNLVESGGILVKPGGSLRLSCAASGFTFSNYAMSWVRQTPEKRLEWVASIGSAGYIHYPDSVKGRFTISRDNARNILYLQMSSLRSEDTAMYYCAREGGLVWFAYWGQGTLVTVSA
VL: ETTVTQSPASLSVATGEKVTIRCITSTDIDDDMNWYQQKPGEPPKLLISEGNTLRPGVPSRFSSSGYGTDFVLTIENTLSEDVADYYCLQSDKMPLTFGAGTKLELK
B3 showed an MFI [10] of 10.6 and an MFI [11] of 42.5.

B4: monoclonal antibody 12D5 (antibody, V domains shown)
VH: QVQLKESGPGLVAPSQSLSITCTVSGFSLNEYGVSWIRQPPGKGLEWLGVIWGGRDTYYHSPLKSRLSITKDNSKSQVFLKMNSLQTDDTAMYYCAKHEGMDYWGQGTSVTVSS
VL: DIVMTQSQKFMSTSVGDRVSVTCKASQNVVTNVAWYQHKPGHSPKPLIYSASYRYSGVPDRFTGSGSGTDFTLTINNVQSEDLAEYFCHQYNNFPLTFGAGTKLELK
B4 was tested, and the MFI [10] was 10.6 and the MFI [11] was 50.
